In patent publication US20170306050A1:

Experiments:
Assay in all cases: cell-based or functional assay
[1] = molecular target: T1, CXCL9
T1 sequence (Q07325 23-125, species assumed, looked up): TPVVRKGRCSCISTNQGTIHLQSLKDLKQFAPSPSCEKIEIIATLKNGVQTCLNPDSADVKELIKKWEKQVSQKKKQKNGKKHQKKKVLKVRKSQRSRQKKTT

[2] = molecular target: CXCL10
[3] = molecular target: T2, CXCL11
T2 sequence (O14625 22-94, species assumed, looked up): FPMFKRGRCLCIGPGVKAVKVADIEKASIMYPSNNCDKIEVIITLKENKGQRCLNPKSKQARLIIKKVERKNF

Chain of MMP9 (Example 10, in vitro enzymatic analyses) (enzyme) (P41245 108-730): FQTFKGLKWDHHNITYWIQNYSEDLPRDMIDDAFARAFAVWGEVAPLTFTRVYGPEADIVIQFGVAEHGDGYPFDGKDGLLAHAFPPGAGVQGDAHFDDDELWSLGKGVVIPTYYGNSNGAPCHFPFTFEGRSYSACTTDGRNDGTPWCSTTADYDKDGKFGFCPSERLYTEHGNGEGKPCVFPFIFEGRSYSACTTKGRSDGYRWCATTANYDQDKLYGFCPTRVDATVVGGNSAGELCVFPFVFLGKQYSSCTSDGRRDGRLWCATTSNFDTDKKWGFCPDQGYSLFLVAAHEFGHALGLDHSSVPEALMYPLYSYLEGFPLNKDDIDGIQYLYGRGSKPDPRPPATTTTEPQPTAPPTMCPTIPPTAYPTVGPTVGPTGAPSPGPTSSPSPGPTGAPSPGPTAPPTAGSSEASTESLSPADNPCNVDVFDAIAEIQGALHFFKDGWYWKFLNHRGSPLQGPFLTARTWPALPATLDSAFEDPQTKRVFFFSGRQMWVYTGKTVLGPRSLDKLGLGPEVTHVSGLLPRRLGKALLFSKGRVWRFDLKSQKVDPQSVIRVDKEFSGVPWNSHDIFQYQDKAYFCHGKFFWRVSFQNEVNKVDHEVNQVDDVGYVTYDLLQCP
Chain of CXCL10 (P02778 22-98): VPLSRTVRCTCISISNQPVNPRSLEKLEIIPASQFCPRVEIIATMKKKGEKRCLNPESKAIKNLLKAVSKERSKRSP

in vitro enzymatic cleavage; T cell migration assay [1]: < 88%
in vitro enzymatic cleavage; T cell migration assay [2]: < 88%
in vitro enzymatic cleavage; T cell migration assay [3]: < 88%
Substance: MMP9 (Example 10, in vitro enzymatic analyses) (enzyme)
